Test results published in patent publication US20180155698.

Legend:
[1] = target: TEE polymerase K276C,Q307E,Q451C (Bacillus stearothermophilus) (UniProt Q04957); assay: BLI; settings: first round 1.10 vs 0.4; second round after incorporation 4.83; very low binary signal; 900 nM, 100 mM KCl, 320 mM K-glutamate, 2 mM SrCl2; scale: ratio correct to highest incorrect signal
[2] = target: DSA polymerase K276C,Q451C (Bacillus stearothermophilus) (UniProt Q04957); assay: BLI; settings: first round 1.75 vs 0.9; second round after incorporation 1.60; 300 nM, 100 mM KCl, 320 mM K-glutamate, 2 mM SrCl2; lower binary and ternary signal than CBT in …; scale: ratio correct to highest incorrect signal

Substance: primed template, next correct nucleotides AT (Examples 3 and 5)
- binding signal [1]: 2.75
- binding signal [2]: 1.95
